Measurements published in the supplement of paper PMC10065799, “High-throughput profiling of sequence recognition by tyrosine kinases and SH2 domains using bacterial peptide display” (eLife, 2023).

Target: Fes (UniProt P07332)
Experiment: phosphorylation enrichment, bacterial display (enrichment ratio); higher = better substrate or ligand; peptides without Tyr show the background
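Further: 11-residue human phosphosite peptides and single-mutation variants displayed on the E. coli surface, counted by deep sequencing, each peptide's frequency after selection divided by its frequency in the unselected input library; frequency after pTyr selection over input frequency; kinase dosed for 20-30% of maximal phosphorylation in three min.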

Sequence of Fes (P07332 whole entry, looked up): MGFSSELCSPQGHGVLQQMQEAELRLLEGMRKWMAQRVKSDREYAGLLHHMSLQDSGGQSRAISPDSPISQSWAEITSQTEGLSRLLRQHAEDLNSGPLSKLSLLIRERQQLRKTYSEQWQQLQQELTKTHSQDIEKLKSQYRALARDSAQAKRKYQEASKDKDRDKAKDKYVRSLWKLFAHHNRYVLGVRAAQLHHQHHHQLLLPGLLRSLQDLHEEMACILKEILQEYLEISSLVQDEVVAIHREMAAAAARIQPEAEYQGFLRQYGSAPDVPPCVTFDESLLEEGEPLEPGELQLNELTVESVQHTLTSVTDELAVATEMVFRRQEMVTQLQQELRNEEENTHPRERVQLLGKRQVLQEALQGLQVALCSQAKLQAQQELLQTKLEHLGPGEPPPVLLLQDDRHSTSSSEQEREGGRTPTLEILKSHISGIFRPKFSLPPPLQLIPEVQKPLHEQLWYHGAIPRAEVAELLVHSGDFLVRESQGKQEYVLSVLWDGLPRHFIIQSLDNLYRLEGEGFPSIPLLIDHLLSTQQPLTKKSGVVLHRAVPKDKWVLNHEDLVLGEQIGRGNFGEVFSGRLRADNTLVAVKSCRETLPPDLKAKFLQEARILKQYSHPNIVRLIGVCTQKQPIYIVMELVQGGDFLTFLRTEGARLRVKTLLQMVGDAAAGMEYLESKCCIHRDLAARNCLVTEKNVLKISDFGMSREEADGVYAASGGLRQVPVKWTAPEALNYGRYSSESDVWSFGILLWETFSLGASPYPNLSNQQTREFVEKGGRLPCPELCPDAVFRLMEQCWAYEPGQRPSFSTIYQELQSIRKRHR

Sequence	phosphorylation enrichment
QMVGMYASSSM [AVPR2_Y124_Y128S]	0.645
EFAAGYNVKFD [GPX4_Y123]	0.862
HHTDECEYDEL [TGM1_Y134_Y134C]	1.75
TNITEYCRDLI [RECQL_Y492_K487T]	1.35
EQDRAYLEGTC [HLA-C_Y183_L180D]	1.14
LSEEKYELKEG [TREM1_Y29_T25S]	1.4
VHSGTYQVTVC [MYBPC3_Y1043_R1048C]	1.23
TIEDSYRKQVV [KRAS_Y40]	0.79
RICRRYCQVLN [IQCF1_Y144_R141C]	1.18
VLICAYLLHRG [PTEN_Y138_M134L]	1.33
TLEKFYFAFPG [SLC1A1_Y51]	1.18
HFPFQCHRQLY [F12_Y53_Y53C]	1.05
AHAGGYGAEAL [HBA1_Y25_E24G]	0.665
YKEQGYHRLPP [RIN1_Y681]	0.507
RAHARYCADAR [ACOT4_Y52]	1.08
CPPKVYELMIA [ABL2_Y515_R519I]	1.34
FTFTSYFMHWV [IGHV1-46_Y51_YF]	1.13

Sequence	phosphorylation enrichment
IRTGIYHGGEP [PIK3CA_Y361_V356I]	0.501
CENNRYGMGAS [PDHA1_Y227_T231A]	0.754
LDLSYYPTSSS [EMD_Y182]	1.81
EQKKYYNAMKK [SCN5A_Y1495]	0.649
MSSLYYANALF [HOXB7_Y6_T9A]	1.04
QAQMDYRRLQP [MPL_Y591]	0.942
DAKTIYDFTDT [PDK1_Y136_A134T]	1.07
IHTEFYDGLFP [BCR_Y561_K558T]	1.34
PLKFLYPNIDK [STAT1_Y668_YF]	2.18
QTPVLYAMLFH [MPZ_Y220_D224Y_YF]	1.23
DPLASYLDKVR [KRT10_Y160_R156P]	0.744
TVEDHDFEGGI [TKT_Y563_Y563D_YF]	1.14
NRNVRYLTLDI [AKR1C2_Y305]	0.921
NKHTTYTMEHI [ACTN1_Y708_N707T]	0.575
AMCVCYDGVEV [ADAMTSL2_Y594_R593C]	1.31
RQNQEYEILMD [KRT39_Y379_L383M]	1.45

Target: EPHB2 (UniProt P29323)
Experiment: as above

Sequence of EPHB2 (P29323 whole entry, looked up): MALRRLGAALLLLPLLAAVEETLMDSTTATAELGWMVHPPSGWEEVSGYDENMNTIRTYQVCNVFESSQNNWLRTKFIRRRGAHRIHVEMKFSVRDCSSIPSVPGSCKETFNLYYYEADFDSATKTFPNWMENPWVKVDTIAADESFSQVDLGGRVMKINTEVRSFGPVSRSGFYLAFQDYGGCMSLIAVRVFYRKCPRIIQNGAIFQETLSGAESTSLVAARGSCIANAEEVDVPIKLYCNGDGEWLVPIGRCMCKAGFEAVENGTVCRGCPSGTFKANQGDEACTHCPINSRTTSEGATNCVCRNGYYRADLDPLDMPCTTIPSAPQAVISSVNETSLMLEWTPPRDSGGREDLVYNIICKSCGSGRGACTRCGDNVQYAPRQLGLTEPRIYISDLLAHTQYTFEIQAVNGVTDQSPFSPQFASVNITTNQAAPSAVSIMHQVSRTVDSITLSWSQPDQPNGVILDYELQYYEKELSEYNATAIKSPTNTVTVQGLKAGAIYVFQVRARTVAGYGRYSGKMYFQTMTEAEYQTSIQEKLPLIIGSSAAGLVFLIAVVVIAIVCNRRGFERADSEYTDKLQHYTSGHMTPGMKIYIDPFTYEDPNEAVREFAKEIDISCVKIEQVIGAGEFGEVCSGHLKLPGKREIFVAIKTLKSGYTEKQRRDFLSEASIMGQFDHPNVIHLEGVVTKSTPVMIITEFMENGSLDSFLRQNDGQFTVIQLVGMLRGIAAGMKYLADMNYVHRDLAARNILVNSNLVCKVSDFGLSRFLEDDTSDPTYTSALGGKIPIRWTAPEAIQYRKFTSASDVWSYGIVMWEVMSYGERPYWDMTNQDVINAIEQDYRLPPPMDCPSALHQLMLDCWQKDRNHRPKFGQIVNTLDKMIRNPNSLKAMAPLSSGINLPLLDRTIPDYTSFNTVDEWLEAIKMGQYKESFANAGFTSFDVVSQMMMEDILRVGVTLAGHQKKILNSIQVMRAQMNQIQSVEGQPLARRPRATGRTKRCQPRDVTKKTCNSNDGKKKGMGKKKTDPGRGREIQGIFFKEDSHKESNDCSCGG

Sequence	phosphorylation enrichment
QMVGMYASSSM [AVPR2_Y124_Y128S]	0.403
EFAAGYNVKFD [GPX4_Y123]	0.397
HHTDECEYDEL [TGM1_Y134_Y134C]	0.772
TNITEYCRDLI [RECQL_Y492_K487T]	0.617
EQDRAYLEGTC [HLA-C_Y183_L180D]	0.574
LSEEKYELKEG [TREM1_Y29_T25S]	0.628
VHSGTYQVTVC [MYBPC3_Y1043_R1048C]	0.655
TIEDSYRKQVV [KRAS_Y40]	0.371
RICRRYCQVLN [IQCF1_Y144_R141C]	0.624
VLICAYLLHRG [PTEN_Y138_M134L]	0.661
TLEKFYFAFPG [SLC1A1_Y51]	2.85
HFPFQCHRQLY [F12_Y53_Y53C]	0.645
AHAGGYGAEAL [HBA1_Y25_E24G]	0.482
YKEQGYHRLPP [RIN1_Y681]	0.364
RAHARYCADAR [ACOT4_Y52]	0.676
CPPKVYELMIA [ABL2_Y515_R519I]	2.25
FTFTSYFMHWV [IGHV1-46_Y51_YF]	0.648

Sequence	phosphorylation enrichment
IRTGIYHGGEP [PIK3CA_Y361_V356I]	0.428
CENNRYGMGAS [PDHA1_Y227_T231A]	0.421
LDLSYYPTSSS [EMD_Y182]	1.18
EQKKYYNAMKK [SCN5A_Y1495]	0.332
MSSLYYANALF [HOXB7_Y6_T9A]	8.29
QAQMDYRRLQP [MPL_Y591]	0.439
DAKTIYDFTDT [PDK1_Y136_A134T]	0.604
IHTEFYDGLFP [BCR_Y561_K558T]	0.828
PLKFLYPNIDK [STAT1_Y668_YF]	1.3
QTPVLYAMLFH [MPZ_Y220_D224Y_YF]	4.17
DPLASYLDKVR [KRT10_Y160_R156P]	0.608
TVEDHDFEGGI [TKT_Y563_Y563D_YF]	0.543
NRNVRYLTLDI [AKR1C2_Y305]	0.506
NKHTTYTMEHI [ACTN1_Y708_N707T]	0.4
AMCVCYDGVEV [ADAMTSL2_Y594_R593C]	0.589
RQNQEYEILMD [KRT39_Y379_L383M]	1.58

Target: Fyn (UniProt P06241)
Experiment: as above

Sequence of Fyn (P06241 whole entry, looked up): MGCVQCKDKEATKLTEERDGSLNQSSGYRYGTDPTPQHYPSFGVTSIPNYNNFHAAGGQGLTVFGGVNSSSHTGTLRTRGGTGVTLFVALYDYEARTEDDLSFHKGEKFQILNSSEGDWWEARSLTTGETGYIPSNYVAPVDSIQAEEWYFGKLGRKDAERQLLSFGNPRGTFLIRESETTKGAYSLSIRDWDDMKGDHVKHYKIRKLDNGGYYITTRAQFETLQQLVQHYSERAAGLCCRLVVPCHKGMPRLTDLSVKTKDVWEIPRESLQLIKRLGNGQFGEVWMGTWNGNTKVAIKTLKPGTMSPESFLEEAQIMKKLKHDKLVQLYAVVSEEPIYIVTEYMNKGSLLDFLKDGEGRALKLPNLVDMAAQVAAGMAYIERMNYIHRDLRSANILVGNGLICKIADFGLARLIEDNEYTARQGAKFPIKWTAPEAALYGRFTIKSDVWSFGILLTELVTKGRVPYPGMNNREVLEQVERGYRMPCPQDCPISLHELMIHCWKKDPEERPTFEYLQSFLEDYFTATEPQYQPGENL

Sequence	phosphorylation enrichment
QMVGMYASSSM [AVPR2_Y124_Y128S]	0.438
EFAAGYNVKFD [GPX4_Y123]	0.465
HHTDECEYDEL [TGM1_Y134_Y134C]	0.869
TNITEYCRDLI [RECQL_Y492_K487T]	0.497
EQDRAYLEGTC [HLA-C_Y183_L180D]	0.511
LSEEKYELKEG [TREM1_Y29_T25S]	0.574
VHSGTYQVTVC [MYBPC3_Y1043_R1048C]	0.555
TIEDSYRKQVV [KRAS_Y40]	0.388
RICRRYCQVLN [IQCF1_Y144_R141C]	0.748
VLICAYLLHRG [PTEN_Y138_M134L]	0.515
TLEKFYFAFPG [SLC1A1_Y51]	1.9
HFPFQCHRQLY [F12_Y53_Y53C]	0.528
AHAGGYGAEAL [HBA1_Y25_E24G]	0.433
YKEQGYHRLPP [RIN1_Y681]	0.462
RAHARYCADAR [ACOT4_Y52]	0.392
CPPKVYELMIA [ABL2_Y515_R519I]	0.916
FTFTSYFMHWV [IGHV1-46_Y51_YF]	0.474

Sequence	phosphorylation enrichment
IRTGIYHGGEP [PIK3CA_Y361_V356I]	0.551
CENNRYGMGAS [PDHA1_Y227_T231A]	0.405
LDLSYYPTSSS [EMD_Y182]	0.762
EQKKYYNAMKK [SCN5A_Y1495]	0.3
MSSLYYANALF [HOXB7_Y6_T9A]	4.93
QAQMDYRRLQP [MPL_Y591]	0.543
DAKTIYDFTDT [PDK1_Y136_A134T]	3.52
IHTEFYDGLFP [BCR_Y561_K558T]	1.06
PLKFLYPNIDK [STAT1_Y668_YF]	1.16
QTPVLYAMLFH [MPZ_Y220_D224Y_YF]	4.56
DPLASYLDKVR [KRT10_Y160_R156P]	0.468
TVEDHDFEGGI [TKT_Y563_Y563D_YF]	0.561
NRNVRYLTLDI [AKR1C2_Y305]	0.381
NKHTTYTMEHI [ACTN1_Y708_N707T]	0.419
AMCVCYDGVEV [ADAMTSL2_Y594_R593C]	0.68
RQNQEYEILMD [KRT39_Y379_L383M]	0.815

Tested on: c-Src
Experiment: as above

Sequence	phosphorylation enrichment
QMVGMYASSSM [AVPR2_Y124_Y128S]	0.567
EFAAGYNVKFD [GPX4_Y123]	0.419
HHTDECEYDEL [TGM1_Y134_Y134C]	0.894
TNITEYCRDLI [RECQL_Y492_K487T]	0.56
EQDRAYLEGTC [HLA-C_Y183_L180D]	0.519
LSEEKYELKEG [TREM1_Y29_T25S]	0.489
VHSGTYQVTVC [MYBPC3_Y1043_R1048C]	0.684
TIEDSYRKQVV [KRAS_Y40]	0.426
RICRRYCQVLN [IQCF1_Y144_R141C]	0.738
VLICAYLLHRG [PTEN_Y138_M134L]	0.516
TLEKFYFAFPG [SLC1A1_Y51]	3.75
HFPFQCHRQLY [F12_Y53_Y53C]	0.422
AHAGGYGAEAL [HBA1_Y25_E24G]	0.385
YKEQGYHRLPP [RIN1_Y681]	0.431
RAHARYCADAR [ACOT4_Y52]	0.419
CPPKVYELMIA [ABL2_Y515_R519I]	1.99
FTFTSYFMHWV [IGHV1-46_Y51_YF]	0.608

Sequence	phosphorylation enrichment
IRTGIYHGGEP [PIK3CA_Y361_V356I]	0.521
CENNRYGMGAS [PDHA1_Y227_T231A]	0.349
LDLSYYPTSSS [EMD_Y182]	0.72
EQKKYYNAMKK [SCN5A_Y1495]	0.34
MSSLYYANALF [HOXB7_Y6_T9A]	4.88
QAQMDYRRLQP [MPL_Y591]	0.428
DAKTIYDFTDT [PDK1_Y136_A134T]	3.32
IHTEFYDGLFP [BCR_Y561_K558T]	1.24
PLKFLYPNIDK [STAT1_Y668_YF]	0.939
QTPVLYAMLFH [MPZ_Y220_D224Y_YF]	4.04
DPLASYLDKVR [KRT10_Y160_R156P]	0.44
TVEDHDFEGGI [TKT_Y563_Y563D_YF]	0.472
NRNVRYLTLDI [AKR1C2_Y305]	0.441
NKHTTYTMEHI [ACTN1_Y708_N707T]	0.45
AMCVCYDGVEV [ADAMTSL2_Y594_R593C]	1.02
RQNQEYEILMD [KRT39_Y379_L383M]	0.861
